Assay results: article PMC9132891, “Antigenic structure of the human coronavirus OC43 spike reveals exposed and occluded neutralizing epitopes” (Nature Communications, 2022)

Experiments:
Assay in all cases: ELISA; S1 antigens coated; H2L2 mAbs at one concentration, 0.4 μg/ml; OD450nm
Conditions in all cases: both partners purified
[1] = molecular target: T1, S1 of OC43 isolate NL/2019 (Human coronavirus OC43, NL/2019, strain)
T1 construct: source: HEK-293T, transient, purified from culture supernatant (Protein A sepharose)
T1 chain: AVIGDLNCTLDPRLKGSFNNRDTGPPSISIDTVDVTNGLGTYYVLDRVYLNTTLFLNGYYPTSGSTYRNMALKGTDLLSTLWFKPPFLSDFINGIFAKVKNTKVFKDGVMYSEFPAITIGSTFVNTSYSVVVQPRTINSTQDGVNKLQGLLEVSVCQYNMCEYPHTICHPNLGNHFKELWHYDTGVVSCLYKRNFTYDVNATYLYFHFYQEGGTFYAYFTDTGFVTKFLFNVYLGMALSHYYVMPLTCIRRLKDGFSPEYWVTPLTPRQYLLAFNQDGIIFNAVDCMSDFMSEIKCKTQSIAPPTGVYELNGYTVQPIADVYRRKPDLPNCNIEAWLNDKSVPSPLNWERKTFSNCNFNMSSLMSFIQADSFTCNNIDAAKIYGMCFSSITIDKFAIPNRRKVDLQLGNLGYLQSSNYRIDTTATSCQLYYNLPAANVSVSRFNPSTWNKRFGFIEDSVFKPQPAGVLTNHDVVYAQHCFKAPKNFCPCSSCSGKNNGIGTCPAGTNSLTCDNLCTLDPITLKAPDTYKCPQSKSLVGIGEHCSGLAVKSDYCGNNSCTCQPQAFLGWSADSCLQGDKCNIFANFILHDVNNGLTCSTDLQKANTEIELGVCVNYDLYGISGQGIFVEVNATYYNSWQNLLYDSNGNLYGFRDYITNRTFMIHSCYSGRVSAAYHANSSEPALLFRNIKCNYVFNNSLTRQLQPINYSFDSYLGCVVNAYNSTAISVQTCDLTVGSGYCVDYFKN

[2] = molecular target: T2, S1 of OC43 isolate BE/2004 (Human coronavirus OC43, BE/2004, UniProt Q4VID5, strain)
T2 construct: source: HEK-293T, transient, purified from culture supernatant (Protein A sepharose)

[3] = molecular target: T3, S1 of OC43 isolate USA/1990(A-II) (Human coronavirus OC43, USA/1990(A-II) …, strain)
T3 construct: source: HEK-293T, transient, purified from culture supernatant (Protein A sepharose)
T3 chain: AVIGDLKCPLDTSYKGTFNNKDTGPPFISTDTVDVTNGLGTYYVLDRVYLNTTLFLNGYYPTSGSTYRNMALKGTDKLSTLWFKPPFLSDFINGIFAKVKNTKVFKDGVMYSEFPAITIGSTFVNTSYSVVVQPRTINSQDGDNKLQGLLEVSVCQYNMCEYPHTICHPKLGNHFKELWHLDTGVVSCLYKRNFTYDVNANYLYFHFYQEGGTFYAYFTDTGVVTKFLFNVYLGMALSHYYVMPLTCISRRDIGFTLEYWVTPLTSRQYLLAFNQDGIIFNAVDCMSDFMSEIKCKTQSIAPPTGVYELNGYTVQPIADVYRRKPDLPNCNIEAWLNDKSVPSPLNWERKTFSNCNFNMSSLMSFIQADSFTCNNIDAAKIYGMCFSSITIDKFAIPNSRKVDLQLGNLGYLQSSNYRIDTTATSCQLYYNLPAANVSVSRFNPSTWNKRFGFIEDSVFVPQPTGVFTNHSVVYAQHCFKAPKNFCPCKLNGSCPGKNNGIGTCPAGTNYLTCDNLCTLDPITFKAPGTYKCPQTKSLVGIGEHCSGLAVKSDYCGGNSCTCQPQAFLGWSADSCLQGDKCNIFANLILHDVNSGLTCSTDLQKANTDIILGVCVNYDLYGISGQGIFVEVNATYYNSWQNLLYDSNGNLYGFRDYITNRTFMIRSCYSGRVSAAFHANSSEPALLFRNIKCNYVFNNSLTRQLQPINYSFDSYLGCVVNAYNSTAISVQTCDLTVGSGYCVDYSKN

[4] = molecular target: T4, S1 of OC43 isolate NL/2004 (Human coronavirus OC43, NL/2004, strain)
T4 construct: source: HEK-293T, transient, purified from culture supernatant (Protein A sepharose)
T4 chain: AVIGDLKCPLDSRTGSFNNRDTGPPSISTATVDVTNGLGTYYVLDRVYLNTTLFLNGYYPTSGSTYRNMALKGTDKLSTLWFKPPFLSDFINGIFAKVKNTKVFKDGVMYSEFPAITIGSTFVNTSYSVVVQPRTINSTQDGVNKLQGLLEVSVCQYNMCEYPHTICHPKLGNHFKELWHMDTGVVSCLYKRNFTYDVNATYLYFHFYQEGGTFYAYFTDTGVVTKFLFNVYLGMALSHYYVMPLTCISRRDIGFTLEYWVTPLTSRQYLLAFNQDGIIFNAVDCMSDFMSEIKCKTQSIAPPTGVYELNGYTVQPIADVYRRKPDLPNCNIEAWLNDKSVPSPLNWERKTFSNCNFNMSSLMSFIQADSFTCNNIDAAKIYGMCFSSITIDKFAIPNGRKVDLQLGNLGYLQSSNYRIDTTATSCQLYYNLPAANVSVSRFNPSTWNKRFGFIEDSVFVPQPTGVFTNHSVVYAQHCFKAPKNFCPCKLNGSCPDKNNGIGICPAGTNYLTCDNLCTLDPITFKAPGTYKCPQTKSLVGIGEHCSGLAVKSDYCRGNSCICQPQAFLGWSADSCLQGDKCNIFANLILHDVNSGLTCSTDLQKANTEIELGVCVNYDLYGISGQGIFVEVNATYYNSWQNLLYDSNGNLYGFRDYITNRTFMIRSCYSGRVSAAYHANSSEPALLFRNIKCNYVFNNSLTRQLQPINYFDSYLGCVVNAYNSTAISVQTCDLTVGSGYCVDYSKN

[5] = molecular target: T5, S1 of OC43 isolate USA/1990(B) (Human coronavirus OC43, USA/1990(B) …, strain)
T5 construct: source: HEK-293T, transient, purified from culture supernatant (Protein A sepharose)
T5 chain: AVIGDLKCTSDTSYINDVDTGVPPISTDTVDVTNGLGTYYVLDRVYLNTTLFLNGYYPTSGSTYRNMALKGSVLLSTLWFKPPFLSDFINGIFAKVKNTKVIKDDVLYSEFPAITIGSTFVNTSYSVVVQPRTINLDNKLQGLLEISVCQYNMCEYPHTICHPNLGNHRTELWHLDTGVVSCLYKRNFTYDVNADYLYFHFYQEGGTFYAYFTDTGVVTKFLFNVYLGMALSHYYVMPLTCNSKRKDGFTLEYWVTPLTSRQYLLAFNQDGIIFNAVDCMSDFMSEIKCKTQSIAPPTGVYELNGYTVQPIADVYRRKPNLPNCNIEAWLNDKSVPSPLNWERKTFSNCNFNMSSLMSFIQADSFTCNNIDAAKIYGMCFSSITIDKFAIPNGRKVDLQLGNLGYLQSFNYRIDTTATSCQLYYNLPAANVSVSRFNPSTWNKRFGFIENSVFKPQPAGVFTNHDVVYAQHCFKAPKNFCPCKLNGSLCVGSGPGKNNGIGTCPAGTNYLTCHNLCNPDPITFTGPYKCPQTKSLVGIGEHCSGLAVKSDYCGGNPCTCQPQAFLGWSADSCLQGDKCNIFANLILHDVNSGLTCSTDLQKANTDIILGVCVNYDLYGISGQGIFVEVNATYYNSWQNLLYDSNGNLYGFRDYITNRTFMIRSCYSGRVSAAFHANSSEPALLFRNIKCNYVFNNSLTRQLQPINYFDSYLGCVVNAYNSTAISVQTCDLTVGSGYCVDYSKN

[6] = molecular target: T6, S1 of bovine coronavirus (BCoV), strain Mebus (Bovine coronavirus (strain Mebus) …, UniProt P15777)
T6 construct: also called BCoV S1; source: HEK-293T, purified (Protein A sepharose)

[7] = molecular target: T7, S1 of equine coronavirus (ECoV), strain NC99 (Equine coronavirus, strain NC99, UniProt A8R4D0, strain)
T7 construct: also called ECoV S1; source: HEK-293T, purified (Protein A sepharose)

Measured: binding result

T6 sequence (P15777 14-763): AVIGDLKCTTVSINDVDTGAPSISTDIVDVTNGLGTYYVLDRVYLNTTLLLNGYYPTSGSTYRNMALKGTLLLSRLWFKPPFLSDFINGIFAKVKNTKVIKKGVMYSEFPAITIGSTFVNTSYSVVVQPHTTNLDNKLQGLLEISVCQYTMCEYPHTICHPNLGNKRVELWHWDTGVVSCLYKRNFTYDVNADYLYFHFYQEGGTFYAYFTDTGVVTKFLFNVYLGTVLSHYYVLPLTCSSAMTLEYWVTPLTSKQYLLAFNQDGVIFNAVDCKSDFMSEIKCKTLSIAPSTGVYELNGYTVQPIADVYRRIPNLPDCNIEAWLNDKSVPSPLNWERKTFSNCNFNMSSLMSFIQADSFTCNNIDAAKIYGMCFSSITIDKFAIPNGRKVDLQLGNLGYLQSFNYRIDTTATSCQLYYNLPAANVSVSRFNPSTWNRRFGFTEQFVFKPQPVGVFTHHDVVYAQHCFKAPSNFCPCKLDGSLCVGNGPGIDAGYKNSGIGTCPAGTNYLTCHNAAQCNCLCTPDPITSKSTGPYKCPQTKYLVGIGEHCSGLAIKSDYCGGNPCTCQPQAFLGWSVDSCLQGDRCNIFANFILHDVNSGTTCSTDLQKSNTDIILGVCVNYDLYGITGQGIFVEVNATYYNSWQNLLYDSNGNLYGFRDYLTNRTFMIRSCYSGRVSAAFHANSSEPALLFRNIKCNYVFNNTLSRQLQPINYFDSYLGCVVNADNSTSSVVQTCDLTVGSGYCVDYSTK

B1: 45B9 H2L2 monoclonal antibody (antibody, V domains shown)
VH: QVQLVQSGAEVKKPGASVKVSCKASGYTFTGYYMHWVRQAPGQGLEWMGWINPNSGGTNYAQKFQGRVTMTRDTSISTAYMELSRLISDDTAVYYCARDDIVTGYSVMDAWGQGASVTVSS
VL: DIQMTQSPSSLSASVGDRVTITCRASQSISNYLNWYQQKPGKAPTLLIYAASSLQSGVPSRFSGSGSGTDFTLTISSLQPEDFATYYCQPSYSSPYTFGQGTKLEIK
notes: also called 45B9 (H2L2 format)
binds: all assays above

B2: 65A11 H2L2 monoclonal antibody (antibody, V domains shown)
VH: QVQMVESGGGVVQPGRSLRLSCAASGFSFSSYGMHWVRQAPGKGLEWVAVIWSDVNYKFYADSVKGRFTISRDNSKNTLSLQMNSLRAEDTAVYYCARDSGLRYFDWDYRGYFDLWGRGTLVTVSS
VL: not shown
notes: also called 65A11 (H2L2 format)
binds: [6]

B3: 56E10 H2L2 monoclonal antibody (antibody, V domains shown)
VH: QVQLQESGPGLVKPSETLSLTCTVSGGSISGYYWSWIRQPPGKGLEWIGYIFYNGNTNYNPSLKSRVTTSLDTSKNQFSLKLISVTGADTAVYYCVRTSLYYFDYWGQGTLVTVSS
VL: DIQMTQSPSSLSASVGDRVTITCQASQDISNFLNWYQQKPGKAPKLLIYDTSSLETGVPSRFSGSGSETDFTFTISSLQPEDIATYYCQQYDNLPLTFGGGTKVEIK
notes: also called 56E10 (H2L2 format)
not listed: [6] | [7]
binds: all other assays above
